Results from publication PMC2172211 (The Journal of Cell Biology, 2004).

Molecular target: T1, GST-Patj (Drosophila, UniProt Q9NB04 1-871)
T1 sequence (looked up): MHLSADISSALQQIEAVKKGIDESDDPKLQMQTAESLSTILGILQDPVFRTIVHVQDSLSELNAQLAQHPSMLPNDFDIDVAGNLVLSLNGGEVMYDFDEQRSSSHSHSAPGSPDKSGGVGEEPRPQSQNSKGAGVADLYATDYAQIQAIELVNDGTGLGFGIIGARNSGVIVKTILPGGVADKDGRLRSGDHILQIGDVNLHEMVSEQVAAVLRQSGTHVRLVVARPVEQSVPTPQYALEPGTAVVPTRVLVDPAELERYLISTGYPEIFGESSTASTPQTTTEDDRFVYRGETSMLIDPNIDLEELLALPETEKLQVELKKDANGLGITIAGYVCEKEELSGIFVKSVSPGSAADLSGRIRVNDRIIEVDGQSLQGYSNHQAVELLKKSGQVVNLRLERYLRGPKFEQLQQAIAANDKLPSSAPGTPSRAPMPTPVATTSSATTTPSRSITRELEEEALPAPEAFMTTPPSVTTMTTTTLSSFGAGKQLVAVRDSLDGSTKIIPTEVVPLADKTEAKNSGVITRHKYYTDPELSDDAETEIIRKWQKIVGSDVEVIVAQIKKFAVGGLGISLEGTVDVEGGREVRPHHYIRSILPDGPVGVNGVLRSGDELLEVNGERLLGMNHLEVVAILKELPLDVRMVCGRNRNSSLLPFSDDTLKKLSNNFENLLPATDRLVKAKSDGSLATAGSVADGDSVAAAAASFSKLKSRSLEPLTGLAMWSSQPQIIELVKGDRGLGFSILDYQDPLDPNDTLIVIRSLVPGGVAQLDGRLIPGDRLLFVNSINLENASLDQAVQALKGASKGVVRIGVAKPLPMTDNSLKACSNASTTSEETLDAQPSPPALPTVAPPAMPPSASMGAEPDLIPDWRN
Assay: pull-down

B1: His-tagged DaPKC (enzyme, Drosophila, UniProt A1Z9X0 1-606, looked up)
chain: MQKMPSQILNDGSSVSLNSASMNMANTPNSITVKTAYNGQIIITTINKNISYEELCYEIRNICRFPLDQPFTIKWVDEENDPCTISTKMELDEAIRLYEMNFDSQLVIHVFPNVPQAPGLSCDGEDRSIYRRGARRWRKLYRVNGHIFQAKRFNRRAFCAYCQDRIWGLGRQGFKCIQCKLLVHKKCHKLVQKHCTDQPEPLVKERAEESSDPIPVPLPPLPYEAMSGGAEACETHDHAHIVAPPPPEDPLEPGTQRQYSLNDFELIRVIGRGSYAKVLMVELRRTRRIYAMKVIKKALVTDDEDIDWVQTEKHVFETASNHPFLVGLHSCFQTPSRLFFVIEFVRGGDLMYHMQRQRRLPEEHARFYAAEISLALNFLHEKGIIYRDLKLDNVLLDHEGHIKLTDYGMCKEGIRPGDTTSTFCGTPNYIAPEILRGEDYGFSVDWWALGVLLYEMLAGRSPFDLAGASENPDQNTEDYLFQVILEKTIRIPRSLSVRAASVLKGFLNKNPADRLGCHRESAFMDIVSHPFFKNMDWELLERKQVTPPFKPRLDSDRDLANFPPEFTGEAVQLTPDDDHVIDNIDQSEFEGFEYVNPLLMSLEDCV
B1: binds.
